In one assay the target is T1, recombinant mouse TfR-1 (mouse, UniProt Q62351 89-763).
T1 construct: Recombinant protein coated at 1 ug/ml in the phage ELISA; also called mTfR1; mouse transferrin receptor-1
Kind of assay: phage ELISA. In general terms: An ELISA detects its analyte on a solid surface through an enzyme-linked reagent.

A further assay deals with T2, recombinant human TfR-1 (human, UniProt P02786 89-760).
T2 construct: Recombinant protein coated at 1 ug/ml in the phage ELISA; also called hTfR1; human transferrin receptor-1
T2 sequence (P02786 89-760 limits assumed): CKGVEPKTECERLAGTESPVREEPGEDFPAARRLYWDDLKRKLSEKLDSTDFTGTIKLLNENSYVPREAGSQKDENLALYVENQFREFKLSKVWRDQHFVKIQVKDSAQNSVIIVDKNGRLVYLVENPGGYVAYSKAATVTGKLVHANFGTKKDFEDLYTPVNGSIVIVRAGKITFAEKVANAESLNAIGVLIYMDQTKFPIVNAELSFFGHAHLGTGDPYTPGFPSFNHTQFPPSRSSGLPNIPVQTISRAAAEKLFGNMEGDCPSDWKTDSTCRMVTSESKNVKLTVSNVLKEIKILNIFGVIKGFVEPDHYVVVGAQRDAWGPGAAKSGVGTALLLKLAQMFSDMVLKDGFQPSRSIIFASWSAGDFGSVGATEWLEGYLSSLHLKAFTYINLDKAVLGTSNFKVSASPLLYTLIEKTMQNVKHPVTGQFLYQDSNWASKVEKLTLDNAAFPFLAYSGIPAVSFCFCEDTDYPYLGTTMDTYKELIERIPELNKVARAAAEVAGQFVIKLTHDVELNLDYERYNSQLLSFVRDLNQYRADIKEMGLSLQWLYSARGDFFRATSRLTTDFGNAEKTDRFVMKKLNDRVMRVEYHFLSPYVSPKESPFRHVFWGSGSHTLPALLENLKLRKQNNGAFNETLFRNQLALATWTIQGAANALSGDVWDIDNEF
Put plainly: phage ELISA.

T1 sequence (Q62351 89-763 limits assumed): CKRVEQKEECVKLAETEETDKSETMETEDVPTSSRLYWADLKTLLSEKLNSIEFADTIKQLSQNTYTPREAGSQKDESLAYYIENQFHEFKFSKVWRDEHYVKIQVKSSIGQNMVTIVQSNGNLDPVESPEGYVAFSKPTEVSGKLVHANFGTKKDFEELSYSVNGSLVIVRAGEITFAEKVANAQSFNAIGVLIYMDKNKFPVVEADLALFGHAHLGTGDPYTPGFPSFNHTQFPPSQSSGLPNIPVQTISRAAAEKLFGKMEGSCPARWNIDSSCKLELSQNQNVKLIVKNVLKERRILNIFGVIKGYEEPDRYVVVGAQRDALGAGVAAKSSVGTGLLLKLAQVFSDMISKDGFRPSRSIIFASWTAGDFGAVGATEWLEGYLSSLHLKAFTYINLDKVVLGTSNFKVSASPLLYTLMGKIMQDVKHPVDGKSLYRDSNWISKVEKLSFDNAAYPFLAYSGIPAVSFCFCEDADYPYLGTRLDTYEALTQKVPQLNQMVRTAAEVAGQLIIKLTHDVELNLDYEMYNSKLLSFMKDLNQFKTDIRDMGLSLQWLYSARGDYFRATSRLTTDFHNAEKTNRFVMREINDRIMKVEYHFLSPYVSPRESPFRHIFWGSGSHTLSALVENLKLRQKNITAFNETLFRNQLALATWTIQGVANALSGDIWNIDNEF

B1: Clone 8.81 (VNAR)
VNAR: ARVDQTPQTITKETGESLTINCVLRDSNCALPSTYWYRKKSGSTNEESISKGGRYVETVNSGSKSFSLRINDLTVEDSGTYRCKVIAQLSSAPDGCNYRKHDVYGDGTAVTVNA
notes: VNAR on phage; Clone 8 framework
Regarding B1, the A450 with recombinant mouse TfR-1 was 0.057 A450; with recombinant human TfR-1 it was 0.065 A450.

B2: Clone 8.88 (VNAR)
VNAR: ARVDQTPQTITKETGESLTINCVLRDSNCALPSTYWYRKKSGSTNEESISKGGRYVETVNSGSKSFSLRINDLTVEDSGTYRCKVIAQLSSILFGCAYRKHDVYGDGTAVTVNA
notes: as for B1
As for B2, the A450 turned out to be 0.055 A450 with recombinant mouse TfR-1 and 0.05 A450 with recombinant human TfR-1.

B3: Clone 8.90 (VNAR)
VNAR: ARVDQTPQTITKETGESLTINCVLRDSNCALPSTYWYRKKSGSTNEESISKGGRYVETVNSGSKSFSLRINDLTVEDSGTYRCKVIAQLSSILRGCNYLYIDVYGDGTAVTVNA
notes: as for B1
Turning to B3, the A450 with recombinant mouse TfR-1 came out at 0.055 A450; in the assay with recombinant human TfR-1 it was 0.054 A450.

B4: Clone 8.82 (VNAR)
VNAR: ARVDQTPQTITKETGESLTINCVLRDSNCALPSTYWYRKKSGSTNEESISKGGRYVETVNSGSKSFSLRINDLTVEDSGTYRCKVIAQLSSILRGCVYPKHDVYGDGTAVTVNA
notes: as for B1
As to B4, the A450 came to 0.057 A450 with recombinant mouse TfR-1 and 0.048 A450 with recombinant human TfR-1.

B5: Clone 8.86 (VNAR)
VNAR: ARVDQTPQTITKETGESLTINCVLRDSNCALPSTYWYRKKSGSTNEESISKGGRYVETVNSGSKSFSLRINDLTVEDSGTYRCKVIAQLSSILVNCFYRKHDVYGDGTAVTVNA
notes: as for B1
Consider B5, for which the A450 with recombinant mouse TfR-1 stood at 0.056 A450; in the assay with recombinant human TfR-1, 0.053 A450.

B6: Clone 8.87 (VNAR)
VNAR: ARVDQTPQTITKETGESLTINCVLRDSNCALPSTYWYRKKSGSTNEESISKGGRYVETVNSGSKSFSLRINDLTVEDSGTYRCKVIAQFSSILCSCRYRKHDVYGDGTAVTVNA
notes: as for B1
As to B6, the A450 in the assay with recombinant mouse TfR-1 was 0.055 A450; in the assay with recombinant human TfR-1, 0.07 A450.

B7: Clone 8.84 (VNAR)
VNAR: ARVDQTPQTITKETGESLTINCVLRDSNCALPSTYWYRKKSGSTNEESISKGGRYVETVNSGSKSFSLRINDLTVEDSGTYRCKVIAWQSSILRGCNYRKHDVYGDGTAVTVNA
notes: as for B1
For the molecule B7, the A450 worked out at 0.057 A450 with recombinant mouse TfR-1 and 0.058 A450 in the assay with recombinant human TfR-1.

B8: Clone 8.85 (VNAR)
VNAR: ARVDQTPQTITKETGESLTINCVLRDSNCALPSTYWYRKKSGSTNEESISKGGRYVETVNSGSKSFSLRINDLTVEDSGTYRCKVIAQLRKKLRGCNYRKHDVYGDGTAVTVNA
notes: as for B1
Consider B8, for which the figures for the A450 with recombinant mouse TfR-1 and with recombinant human TfR-1 were 0.056 A450 and 0.059 A450, respectively.

B9: Clone 8.91 (VNAR)
VNAR: ARVDQTPQTITKETGESLTINCVLRDSNCALPSTYWYRKKSGSTNEESISKGGRYVETVNSGSKSFSLRINDLTVEDSGTYRCKVIAQLSSRKGGCNYRKHDVYGDGTAVTVNA
notes: as for B1
With B9, the A450 with recombinant mouse TfR-1 worked out at 0.055 A450; with recombinant human TfR-1, 0.071 A450.

B10: Clone 8.83 (VNAR)
VNAR: ARVDQTPQTITKETGESLTINCVLRDSNCALPSTYWYRKKSGSTNEESISKGGRYVETVNSGSKSFSLRINDLTVEDSGTYRCKVIAQLSSIRAGCNYRKHDVYGDGTAVTVNA
notes: as for B1
For the molecule B10, the A450 with recombinant mouse TfR-1 was found to be 0.057 A450; in the assay with recombinant human TfR-1, 0.046 A450.

B11: Clone 8.92 (VNAR)
VNAR: ARVDQTPQTITKETGESLTINCVLRDSNCALPSTYWYRKKSGSTNEESISKGGRYVETVNSGSKSFSLRINDLTVEDSGTYRCKVIAQLTQWLRGCNYRKHDVYGDGTAVTVNA
notes: as for B1
Consider B11, for which the A450 with recombinant mouse TfR-1 stood at 0.055 A450; with recombinant human TfR-1, 0.051 A450.

B12: Clone 8.89 (VNAR)
VNAR: ARVDQTPQTITKETGESLTINCVLRDSNCALPSTYWYRKKSGSTNEESISKGGRYVETVNSGSKSFSLRINDLTVEDSGTYRCKVIAQLSSILFGCDYRKHDVYGDGTAVTVNA
notes: as for B1
For the molecule B12, the A450 is 0.055 A450 in the assay with recombinant mouse TfR-1 and 0.048 A450 in the assay with recombinant human TfR-1.
